Measured values taken from patent publication US20050048527, “Endonuclease-substrate complexes” (Third Wave Technologies, Inc., published 2005).
Numbering of substitutions follows the chain as printed.

T1: Mja FEN1 (Methanococcus jannaschii, UniProt Q58839 SEQ:1-326)
T1 sequence: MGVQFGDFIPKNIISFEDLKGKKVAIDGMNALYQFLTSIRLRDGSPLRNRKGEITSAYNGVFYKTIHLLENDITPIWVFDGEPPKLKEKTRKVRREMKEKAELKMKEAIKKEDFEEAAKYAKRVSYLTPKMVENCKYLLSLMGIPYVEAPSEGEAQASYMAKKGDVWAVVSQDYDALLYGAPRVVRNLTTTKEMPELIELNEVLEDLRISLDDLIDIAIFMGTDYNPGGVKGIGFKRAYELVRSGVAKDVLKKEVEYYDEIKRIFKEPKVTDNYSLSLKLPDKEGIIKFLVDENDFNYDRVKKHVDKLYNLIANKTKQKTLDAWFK

T2: Pfu3M FEN1 (Pyrococcus furiosus, UniProt O93634 SEQ:1-340)
T2 chain: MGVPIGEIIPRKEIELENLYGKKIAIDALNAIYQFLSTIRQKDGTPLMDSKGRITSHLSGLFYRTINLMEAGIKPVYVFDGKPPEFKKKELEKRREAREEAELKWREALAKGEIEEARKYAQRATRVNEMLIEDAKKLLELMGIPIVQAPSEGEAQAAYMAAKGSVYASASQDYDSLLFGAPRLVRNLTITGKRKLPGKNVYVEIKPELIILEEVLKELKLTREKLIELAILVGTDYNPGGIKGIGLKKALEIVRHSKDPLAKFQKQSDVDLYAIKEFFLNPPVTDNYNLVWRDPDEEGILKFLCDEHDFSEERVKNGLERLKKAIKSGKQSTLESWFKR

T3: Pho3M FEN1 (Pyrococcus horikoshii, UniProt O50123 SEQ:1-343)
T3 chain: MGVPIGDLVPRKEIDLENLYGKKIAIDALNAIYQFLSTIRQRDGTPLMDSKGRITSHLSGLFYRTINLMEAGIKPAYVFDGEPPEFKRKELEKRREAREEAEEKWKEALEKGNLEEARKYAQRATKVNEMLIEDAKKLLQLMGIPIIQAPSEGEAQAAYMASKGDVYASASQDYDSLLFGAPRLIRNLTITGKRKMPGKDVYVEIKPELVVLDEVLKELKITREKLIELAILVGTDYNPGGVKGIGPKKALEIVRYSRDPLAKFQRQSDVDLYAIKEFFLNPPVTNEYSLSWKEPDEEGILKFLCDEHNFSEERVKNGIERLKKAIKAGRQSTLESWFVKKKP

T4: Pho4M FEN1 (Pyrococcus horikoshii, UniProt O50123 SEQ:1-343)
T4 chain: T3 chain with N113E

T5: Pfu2M FEN1 (Pyrococcus furiosus, UniProt O93634 SEQ:1-340)
T5 chain: T2 chain with A110E

T6: Pho1M FEN1 (Pyrococcus horikoshii, UniProt O50123 SEQ:1-343)
T6 chain: T3 chain with E103L, E110A

B1: INVADER substrate 594-12-1/203-91-1 (structured_DNA)
DNA 1: TTTTTCACGGCAGTTGGTGCGCCTCGGAACGAGGCGCACA
DNA 2: TTTTCAACTGCCGTGA
B2: X-structure 203-81-2/203-91-2 (structured_DNA)
DNA 1: TTTTCAACTGCTTAGAGAATCTAAGCAGTTGGTGCGCCTCGTTAA
DNA 2: AACGAGGCGCACATT
modifications: 3'-NH2 on first strand

Key:
Assay in all cases: cleavage_in_vitro; rate vs Pfu FEN1
Mja FEN1 = target: T1, Mja FEN1
Procedure: (§1) For the evaluation of chimeric enzymes, standard tests were performed to measure the performance and specificity of the enzymes. […] 10 μl reactions are run at 59 C for between 5 to 60 minutes depending on the enzyme. Reactions are stopped by the addition of 10 μl of 95% formamide, 0.02% methyl violet. 1 μl of the mixture is run on a denaturing 20% acrylamide gel and electrophoresed for 15 minutes or until good separation is achieved between cleaved and uncleaved probe. The gels are scanned using an FMBIO fluorescent gel scanner and the bands are quantified with FMBIOAnalysis software. Cleavage rates are determined from the percent probe cleaved. Cleavage rate for the INVADER substrate is defined as the number of probe molecules cleaved per target molecule per minute. In Table 5, below, the cleavage rates for the mutant enzymes are compared to the cleavage rates for unmodified Pfu FEN1 enzyme on the INVADER assay and X-structure substrates.
(§2) The X-structure substrate is used to determine the amount of background cleavage an enzyme will carry out in an INVADER reaction. It mimics the structure created by uncut primary probe and secondary FRET cassette in the INVADER squared reaction. […] 10 μl reactions are run at 59 C for between 3 to 30 minutes depending on the enzyme. Reactions are stopped by the addition of 10 μl of 95% formamide, 0.02% methyl violet. 1 μl of the mixture is run on a denaturing 20% acrylamide gel and electophoresed for 15 minutes or until good separation is achieved between cleaved and uncleaved probe. The gels are scanned using an FMBIO fluorescent gel scanner and the bands are quantified with FMBIOAnalysis software. Cleavage rates are determined from the percent probe cleaved.

Pfu3M FEN1 = target: T2, Pfu3M FEN1
Procedure: as §1, §2

Pho3M FEN1 = target: T3, Pho3M FEN1
Procedure: as §1, §2

Pho4M FEN1 = target: T4, Pho4M FEN1
Procedure: as §1, §2

Pfu2M FEN1 = target: T5, Pfu2M FEN1
Procedure: as §1, §2

Pho1M FEN1 = target: T6, Pho1M FEN1
Procedure: as §1, §2

[1] = label: 5'-biotin target, 5'-TET probe, hairpin target-INVADER with overlapping probe flap

| Binder | cleavage rate (Mja FEN1; [1]) | cleavage rate (Pfu3M FEN1; [1]) | cleavage rate (Pho3M FEN1; [1]) | cleavage rate (Pho4M FEN1; [1]) | cleavage rate (Pfu2M FEN1; [1]) | cleavage rate (Pho1M FEN1; [1]) | cleavage rate (Mja FEN1; label: 5'-TET, X-structure) | cleavage rate (Pfu3M FEN1; label: 5'-TET, X-structure) | cleavage rate (Pho3M FEN1; label: 5'-TET, X-structure) | cleavage rate (Pho4M FEN1; label: 5'-TET, X-structure) | cleavage rate (Pfu2M FEN1; label: 5'-TET, X-structure) | cleavage rate (Pho1M FEN1; label: 5'-TET, X-structure) |
| --- | --- | --- | --- | --- | --- | --- | --- | --- | --- | --- | --- | --- |
| B1 | 1.9 | 1.8 | 0.95 | 1.3 | 1.4 | 1.1 | – | – | – | – | – | – |
| B2 | – | – | – | – | – | – | 203 | 4.9 | 6.6 | 2.2 | 3 | 18 |
